Measured values published in patent publication US20170320965A1, “PAN-REACTIVE ANTIBODIES TO DUOCARMYCINS” (SYNTHON BIOPHARMACEUTICALS B.V., priority 2014, published 2017).

B1: B-6-2-10: monoclonal, pan-reactive anti-duocarmycin antibody derived from hapten B; VH/VL SEQ ID NO:3 and 4 (antibody, listed as Mus musculus, V domains shown)
VH: DVKLVESGGGLVKPGGSLKLSCAASGFTFRTYTMSWVRQTPEKRLEWVATISSGGSYTYYPDSMKGRFTISRDNAKNTLYLQMSSLKSEDTAMYYCTRGPFYDVYYFLFAYWGQGTLVTVSA
VL: QAVVTQESALTTSPGETVTLTCRSSIGAVTTTNYANWVQEKPDHLFTGLIGGTNNRAPGVPARFSGSLIGDKAALTITGAQTEDEAIYFCALWYSNHWVFGGGTKLTVL
B2: A-15-5-4: monoclonal, pan-reactive anti-duocarmycin antibody derived from hapten A; VH/VL SEQ ID NO:1 and 2 (antibody, listed as Mus musculus, V domains shown)
VH: QVQLQQPGAELVKPGASVKLPCKASGYTFISYYMYWVKQRPGQGLEWIGVINPSNGGTTFNEKFKNKATLTVDKSSSTAYLQLSSLTSEDSAVYYCTCLNYYGSSYWYFDVWGAGTTVTVSS
VL: DVVMTQTPLSLPVSLGDQASIFCRSSQSLVHSDGNTYLHWYLQKPGQSPKLLIYTVSNRFSGVPDRFSGSGSGTDFTLKISRVEAEDLGVYFCSQSTHVPWTFGGGTTLEIK
B3: C-16-1-7: monoclonal, pan-reactive anti-duocarmycin antibody derived from hapten C; VH/VL SEQ ID NO:5 and 6 (antibody, listed as Mus musculus, V domains shown)
VH: EVKLVESGGGLVKPGGSLKVSCAASGFTFSSYAMSWVRQIPDKRLEWVASISTGGITYYLDGVKGRFTISRDNARNILYLQMSSLRSEDTAIYYCARWSYAMDYWGQGTSVTVSS
VL: QIVLTQSPAIMSASLGERVTMTCTASSSVSSSYLHWYQQKPGSSPKVWIYSTSNLASGVPARFRGSGSGTSYSLTISSMEAEDAATYYCHQYHRSPPTFGGGTKLEIK

Tested on: panel of 18 different duocarmycin-containing antibody-drug conjugates having a common DNA alkylating moiety
Experiment: BIA (Biomolecular Interaction Analysis) assay, surface plasmon resonance, second screening for pan-reactive antibodies
Type: binding
Settings: anti-hapten mAb captured on polyclonal anti-mouse surface; ADCs 1 to 18 of FIG. 2 injected sequentially, approx. 20 μg/mL, 25° C.
Excerpt: The samples of the supernatant culture fluid are screened with a suitable assay for the selection of pan-reactive antibodies reactive to the antigen. Suitable immunoassays are well known and may be readily determined by the person skilled in the art. A preferred immuno-assay is the Biomolecular Interaction Analysis (BIA) assay in which the sensor chip surface is modified by immobilization of polyclonal anti-mouse which results in a surface that can bind any mouse monoclonal antibodies.
In a specific embodiment of the present invention, the BIA assay is performed using an anti-hapten A, B or C monoclonal antibody captured on a polyclonal anti-mouse surface to a high binding level (capture reagent). Subsequently, a panel of duocarmycin-containing antibody-drug conjugates is injected sequentially and the signal (RU, resonance or responsive units) indicating binding is recorded. The panel of duocarmycin derivatives contain the same DNA alkylating moiety as a common structural moiety (as shown hereinabove), but have a different DNA binding moiety, and/or linker, and/or antibody. Monoclonal, pan-reactive antibodies are selected based on surface plasmon resonance (SPR), which response is directly proportional to the mass increase on the surface. An increase in mass on the surface is a positive binding reaction. Those antibodies binding to at least 3, preferably at least 5, more preferably at least 10, even more preferably at least 15, most preferably at least 18 different duocarmycin-containing antibody-drug conjugates having the same DNA alkylating moiety described hereinabove, are selected as pan-reactive antibodies in accordance with the present invention.
The BIA (Biomolecular Interaction Analysis) assay was used for the selection of monoclonal, pan-reactive antibodies. One flow cell on a CMS sensor chip was immobilized by amine coupling with polyclonal anti-mouse to a level of approx. 16,000 RU. […]

Molecule | binding to a panel of 18 different duocarmycin-containing antibody-drug conjugates
B1 | show binding
B2 | show binding
B3 | show binding
